From article PMC5836505

Legend:
[1] = target: T1, GST-FUS (Homo sapiens, UniProt P35637 1-526); test: competition
[2] = target: T1, GST-FUS; test: EMSA
[3] = target: His-FUS (UniProt P35637 1-526); test: single-molecule TIRF
[4] = target: T1, GST-FUS; test: EMSA; remark: listed apart in the source

T1 sequence (P35637 whole entry): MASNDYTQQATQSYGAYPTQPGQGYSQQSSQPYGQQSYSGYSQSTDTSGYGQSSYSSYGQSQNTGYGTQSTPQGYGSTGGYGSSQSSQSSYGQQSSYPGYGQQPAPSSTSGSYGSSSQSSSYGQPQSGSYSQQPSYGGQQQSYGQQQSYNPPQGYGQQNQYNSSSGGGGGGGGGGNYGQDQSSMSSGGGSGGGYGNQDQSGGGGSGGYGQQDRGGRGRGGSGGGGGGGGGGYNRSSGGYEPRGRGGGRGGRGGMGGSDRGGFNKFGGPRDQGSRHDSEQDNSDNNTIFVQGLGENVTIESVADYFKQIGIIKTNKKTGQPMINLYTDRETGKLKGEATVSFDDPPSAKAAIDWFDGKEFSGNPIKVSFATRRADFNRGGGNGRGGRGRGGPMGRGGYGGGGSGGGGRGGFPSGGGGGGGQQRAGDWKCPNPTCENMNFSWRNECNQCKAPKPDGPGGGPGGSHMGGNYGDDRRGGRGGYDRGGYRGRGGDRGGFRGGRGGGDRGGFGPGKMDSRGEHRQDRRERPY
Chain of His-FUS (P35637 whole entry): as above

Question: Does UAAUACUGCCGGGUAAUGAUGGA (ssRNA) [miR-200c (untagged)] bind [1]?
Answer: binds

Question: Does UAAUACUGCCGGGUAAUGAUGGA (ssRNA) [miR-200c (Cy5)] bind [2]?
Answer: binds

Question: Does UAAUACUGCCGGGUAAUGAUGGA (ssRNA) [miR-200c (Cy5)] bind [3]?
Answer: binds

Question: Does UUGUAUUUUGAGCUAGUUUGGUGAC (ssRNA) [GGUG oligo] bind [4]?
Answer: binds
